Data from patent US12281155 (INSTITUT PASTEUR, dated 2025).
Residue numbers refer to the chain shown, from its start.

B1: SPK002M C1 antibody (antibody, human IgG1, kappa, V domains shown)
VH: EVQLVESGGGLIQPGGSLRLSCAASIITVTSNYMSWVRQAPGKGLEWVSVAYPGGSTFYADSVKGRFTISTDNSKNTLYLQMNSLRAEDTAVYYCARDLVVYGMDVWGQGTTVTVSS
VL: EIVLTQSPGTLSLSPGERATLSCRASQSVSDSYLAWYQQKPGQAPRLLIYGASSRATGIPGRFSGSGSGTDFTLTISRLEPEDFAVYYCQYGVTFGGGTKVEIKR
B2: SPK002M C3 antibody (antibody, human IgG1, kappa, V domains shown)
VH: B1 VH with A51I
VL: B1 VL with D31S, Y91Q
B3: SPK002M C2 antibody (antibody, human IgG1, kappa, V domains shown)
VH: B1 VH
VL: B1 VL with D31S, Y91Q

These binders were tested against Spike protein of SARS-CoV-2 strain D614G (hCoV-19/France/GE1973/2020) (SARS-CoV-2, UniProt P0DTC2 14-1273) (assay: cell-based or functional assay).
In the case of B1, the “IC50, S-Fuse neutralization of live virus” value (“IC50, S-Fuse neutralization” for short) is reported as 0.08 µg/mL.
B2 was tested, and the “IC50, S-Fuse neutralization” value was 0.08 µg/mL.
B3 was tested, and the “IC50, S-Fuse neutralization” value was 0.06 µg/mL.

What follows are binders tested against Spike protein of SARS-CoV-2 strain BA.2.86 (hCoV-19/France/IDF-IPP17625/2023) (SARS-CoV-2) (assay: cell-based or functional assay).
B1 was tested, and the “IC50, S-Fuse neutralization” value was 0.03 µg/mL.
B2 was tested, and the “IC50, S-Fuse neutralization” value was 0.33 µg/mL.
With B3 the “IC50, S-Fuse neutralization” value was 0.05 µg/mL.

Each binder was assayed against Spike protein of SARS-CoV-2 strain XBB.1.16 (hCoV-19/France/GES-IPP7712/2023) (SARS-CoV-2) (assay: cell-based or functional assay).
B1 was tested, and the “IC50, S-Fuse neutralization” value was 0.12 µg/mL.
In the case of B2, the “IC50, S-Fuse neutralization” value is reported as 0.3 µg/mL.
For B3, the “IC50, S-Fuse neutralization” value was 0.21 µg/mL.

The binders below were run against Spike protein of SARS-CoV-2 strain JN.1 (hCoV-19/France/HDF-IPP21391/2023) (SARS-CoV-2) (assay: cell-based or functional assay).
B1 was tested, and the “IC50, S-Fuse neutralization” value was 1.73 µg/mL.
With B2 the “IC50, S-Fuse neutralization” value was 60.1 µg/mL.
B3 was tested, and the “IC50, S-Fuse neutralization” value was 53.8 µg/mL.

What follows are binders tested against Spike protein of SARS-CoV-2 strain XBB.1.5 (GISAID EPI_ISL_16353849) (SARS-CoV-2) (assay: cell-based or functional assay).
B1 was tested, and the “IC50, S-Fuse neutralization” value was 0.07 µg/mL.
With B2 the “IC50, S-Fuse neutralization” value was 0.13 µg/mL.
In the case of B3, the “IC50, S-Fuse neutralization” value is reported as 0.14 µg/mL.

Each binder was assayed against Spike protein of SARS-CoV-2 strain EG.5.1 (hCoV-19/France/GES-IPP15954/2023) (SARS-CoV-2) (assay: cell-based or functional assay).
In the case of B1, the “IC50, S-Fuse neutralization” value is reported as 0.16 µg/mL.
B2 was tested, and the “IC50, S-Fuse neutralization” value was 6.08 µg/mL.
With B3 the “IC50, S-Fuse neutralization” value was 2.16 µg/mL.

Each binder was assayed against T1, recombinant SARS-CoV-2 Spike RBD domain, BQ.1.1 variant (SARS-CoV-2) (assay: competition ELISA, blocking of RBD binding to ACE2 ectodomain).
T1 construct: also called RBD BQ.1.1. variant
B1 showed a Blocking % of 97%.
In the case of B2, the Blocking % is reported as 94%.
Binder B3 has a Blocking % of 95%.

The binders below were run against T2, recombinant SARS-CoV-2 Spike RBD domain, XBB.1.16 variant (SARS-CoV-2) in the same assay as above.
T2 construct: also called RBD XBB.1.16 variant
Work on B1 yielded a Blocking % of 96%.
For B2, the Blocking % was 90%.
Binder B3 has a Blocking % of 93%.

Each binder was assayed against T3, recombinant SARS-CoV-2 Spike RBD domain, XBB.1.5 variant (SARS-CoV-2) in the same assay as above.
T3 construct: also called RBD XBB.1.5 variant
B1 showed a Blocking % of 96%.
For B2, the Blocking % was 90%.
For B3, the Blocking % was 93%.

These binders were tested against T4, recombinant SARS-CoV-2 Spike RBD domain, BA.2 variant (SARS-CoV-2) in the same assay as above.
T4 construct: also called RBD BA.2. variant
In the case of B1, the Blocking % is reported as 95%.
Binder B2 has a Blocking % of 94%.
With B3 the Blocking % was 93%.

These binders were tested against T5, recombinant SARS-CoV-2 Spike RBD domain, EG.5 variant (SARS-CoV-2) in the same assay as above.
T5 construct: also called RBD EG.5.1 variant
For B1, the Blocking % was 96%.
Work on B2 yielded a Blocking % of 81%.
B3 was tested, and the Blocking % was 89%.

The binders below were run against T6, recombinant SARS-CoV-2 Spike RBD domain, BA.2.75.2 variant (SARS-CoV-2) in the same assay as above.
T6 construct: also called RBD BA.2.75.2 variant
In the case of B1, the Blocking % is reported as 95%.
B2 showed a Blocking % of 94%.
For B3, the Blocking % was 92%.

Each binder was assayed against T7, recombinant SARS-CoV-2 Spike RBD domain, JN-1 variant (SARS-CoV-2) in the same assay as above.
T7 construct: also called RBD JN-1 variant
B1 gave a Blocking % of 83%.
B2 gave a Blocking % of 0%.
B3 showed a Blocking % of 28%.

The binders below were run against T8, recombinant SARS-CoV-2 Spike RBD domain, BA.4/5 variant (SARS-CoV-2) in the same assay as above.
T8 construct: also called RBD BA.4/5 variant
Binder B1 has a Blocking % of 97%.
B2 was tested, and the Blocking % was 94%.
In the case of B3, the Blocking % is reported as 93%.

What follows are binders tested against T9, recombinant SARS-CoV-2 Spike RBD domain, Delta variant (SARS-CoV-2) in the same assay as above.
T9 construct: also called RBD Delta variant
In the case of B1, the Blocking % is reported as 94%.
Work on B2 yielded a Blocking % of 95%.
B3 showed a Blocking % of 90%.

The binders below were run against T10, recombinant SARS-CoV-2 Spike RBD domain, BA.2.86 variant (SARS-CoV-2) in the same assay as above.
T10 construct: also called RBD BA.2.86 variant
For B1, the Blocking % was 96%.
Binder B2 has a Blocking % of 90%.
B3 was tested, and the Blocking % was 91%.

These binders were tested against T1, recombinant SARS-CoV-2 Spike RBD … (assay: ELISA on coated RBD).
B1 was tested, and the “Binding AUC” value was 31.
B2 was tested, and the “Binding AUC” value was 31.
With B3 the “Binding AUC” value was 31.

These binders were tested against T2, recombinant SARS-CoV-2 Spike RBD … (assay: ELISA on coated RBD).
In the case of B1, the “Binding AUC” value is reported as 29.
With B2 the “Binding AUC” value was 31.
With B3 the “Binding AUC” value was 29.

What follows are binders tested against T3, recombinant SARS-CoV-2 Spike RBD … (assay: ELISA on coated RBD).
With B1 the “Binding AUC” value was 31.
B2 was tested, and the “Binding AUC” value was 32.
In the case of B3, the “Binding AUC” value is reported as 31.

These binders were tested against T4, recombinant SARS-CoV-2 Spike RBD … (assay: ELISA on coated RBD).
B1 was tested, and the “Binding AUC” value was 28.
B2 was tested, and the “Binding AUC” value was 19.
B3 was tested, and the “Binding AUC” value was 23.

The binders below were run against T5, recombinant SARS-CoV-2 Spike RBD … (assay: ELISA on coated RBD).
For B1, the “Binding AUC” value was 32.
In the case of B2, the “Binding AUC” value is reported as 33.
For B3, the “Binding AUC” value was 32.

The binders below were run against T6, recombinant SARS-CoV-2 Spike RBD … (assay: ELISA on coated RBD).
For B1, the “Binding AUC” value was 28.
B2 was tested, and the “Binding AUC” value was 29.
B3 was tested, and the “Binding AUC” value was 28.

What follows are binders tested against T7, recombinant SARS-CoV-2 Spike RBD … (assay: ELISA on coated RBD).
In the case of B1, the “Binding AUC” value is reported as 39.
For B2, the “Binding AUC” value was 29.
With B3 the “Binding AUC” value was 33.

The binders below were run against T8, recombinant SARS-CoV-2 Spike RBD … (assay: ELISA on coated RBD).
With B1 the “Binding AUC” value was 30.
B2 was tested, and the “Binding AUC” value was 32.
With B3 the “Binding AUC” value was 30.

Each binder was assayed against T9, recombinant SARS-CoV-2 Spike RBD … (assay: ELISA on coated RBD).
In the case of B1, the “Binding AUC” value is reported as 32.
In the case of B2, the “Binding AUC” value is reported as 33.
B3 was tested, and the “Binding AUC” value was 32.

Each binder was assayed against T10, recombinant SARS-CoV-2 Spike RBD … (assay: ELISA on coated RBD).
In the case of B1, the “Binding AUC” value is reported as 38.
With B2 the “Binding AUC” value was 38.
B3 was tested, and the “Binding AUC” value was 38.
